The chains are these.
B1: H10 affinity-matured antibody fragment, kappa light chain fusion protein (scFv, V domains shown)
VH: EVQLLESGGGLVQPGGSLRLSCAASGFTFSDYYMSWVRQAPGKGLEWVSGIYYDGTNVYYADSVKGRFTISRDNSKNTLYLQMNSLRAEDTAVYYCAKGPLFCNDRTCSYYYAMDVWGQGTLVTVSS
VL: QSVLTQPPSASGTPGQRVTISCLGGYSNIGSNAVYWYQQLPGTAPKLLIYDDNHRPSGVPDRFSGSKSGTSASLAISGLRSEDEADYYCGTWDYSLSGYVLGGGTKLTVL
B2: C2 affinity-matured antibody fragment, kappa light chain fusion protein (scFv, V domains shown)
VH: B1 VH with V58Q
VL: B1 VL with L23T, Y26L
B3: T3H9 affinity-matured antibody fragment, kappa light chain fusion protein (scFv, V domains shown)
VH: B1 VH with G55A, T56S, N57A, V58E
VL: B1 VL with L23S, G25M, Y26L
B4: D7 affinity-matured antibody fragment, kappa light chain fusion protein (scFv, V domains shown)
VH: B1 VH with N57A, V58F
VL: B1 VL with L23E, G25Q, Y26P
B5: 2F1 affinity-matured antibody fragment, kappa light chain fusion protein (scFv, V domains shown)
VH: B1 VH with T56S, N57S, V58Q, Y59G, Y60W, A61S, D62S
VL: B1 VL with L23Y, G25Q, Y26P
B6: E3 affinity-matured antibody fragment, kappa light chain fusion protein (scFv, V domains shown)
VH: B1 VH with N57A, V58M
VL: B1 VL with L23S
B7: E12 affinity-matured antibody fragment, kappa light chain fusion protein (scFv, V domains shown)
VH: B1 VH with G55S, T56F, N57V, V58P
VL: B1 VL with L23A, G25S, Y26A
B8: T3C1 affinity-matured antibody fragment, kappa light chain fusion protein (scFv, V domains shown)
VH: B1 VH with T56S, N57A, V58S
VL: B1 VL with L23S, Y26P
B9: D10 affinity-matured antibody fragment, kappa light chain fusion protein (scFv, V domains shown)
VH: B1 VH with T56S, N57A
VL: B1 VL with L23W, G25D

Changes are numbered by the printed parent chain.

For the first experiment, the target named is CD19-ECD Fc fusion protein (human) (UniProt P15391). The experiment in a line: ELISA, plates coated with CD19-ECD Fc, dose series of purified kappa fusion antibody fragment, OD450, GraphPad Prism. (ELISA stands for enzyme-linked immunosorbent assay.)
In the case of B1, the EC50 is 3.31 nM.
B2 had an EC50 of 5.81 nM.
The same measure, in the same setting: to B3 belongs 2.32 nM.
As for B4, the EC50 was 3.2 nM.
The same measure, in the same setting: the same measure for B5: 1.6 nM.
Regarding B6, the EC50 stood at 1.87 nM.
Still for that read-out and setting: the same measure for B7: 2.56 nM; for B8: 2.4 nM.
The same measure, in the same setting: to B9 belongs 2.48 nM.

For another experiment, the target named is CD19 on the CD19-positive RaJi cell line (UniProt P15391). The experiment in a line: flow cytometry on the CD19-positive RaJi cell line, dose series, anti-human IgG-FITC, GraphPad Prism.
As for B2, the 50% effective concentration (EC50) was 61.2 nM.
On to B5, for which the EC50 turned out to be 10.5 nM.
Still for that read-out and setting: to B6 belongs 26.1 nM.

In general, EC50 refers to the concentration at which the effect is half-maximal. A lower EC50 goes with an effect from little substance.
